For the experiment, the target named is T1, Peroxiredoxin 1 (Prx1) WT, recombinant (mouse), P35700.
T1 chain: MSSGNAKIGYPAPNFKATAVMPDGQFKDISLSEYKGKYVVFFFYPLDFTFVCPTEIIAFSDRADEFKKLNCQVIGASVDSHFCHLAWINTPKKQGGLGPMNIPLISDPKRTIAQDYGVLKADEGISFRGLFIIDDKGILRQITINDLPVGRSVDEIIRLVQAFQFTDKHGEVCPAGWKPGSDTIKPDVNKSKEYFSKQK
Put plainly: native gel or EMSA; BN-PAGE of purified recombinant proteins incubated for 1 hour at room temperature (20 μg p66CH2CB with 40 μg Prx1 WT or 20 μg Prx1-Cys83Ser); bands cut out and separated in a second, denaturing SDS-PAGE dimension. Conditions: remark: other sources report otherwise.

B1: Peroxiredoxin 1 (Prx1) WT, recombinant, P35700 1-199 (enzyme)
chain: MSSGNAKIGYPAPNFKATAVMPDGQFKDISLSEYKGKYVVFFFYPLDFTFVCPTEIIAFSDRADEFKKLNCQVIGASVDSHFCHLAWINTPKKQGGLGPMNIPLISDPKRTIAQDYGVLKADEGISFRGLFIIDDKGILRQITINDLPVGRSVDEIIRLVQAFQFTDKHGEVCPAGWKPGSDTIKPDVNKSKEYFSKQK
Turning to B1, the stoichiometry N worked out at 10.

For the origin of these results see publication PMC2806001.
